Assays:
[1] = target: T1, HuFcγRIIIa-V158-K6H6 (human, UniProt P08637 17-208); test: SPR Biacore T100, 25 °C, steady state; receptor captured via anti-Penta His, construct 500-4000 nM
T1 construct: Captured on an anti-Penta His antibody on a CM5 chip; also called human FcγRIIIa-V158; human FcγRIIIa; not shown: K6H6 tag
Protocol: (§1) For analyzing interaction of different Fc-variants with human FcγRIIIa-V158 and murine FcγRIV direct coupling of around 6,500 resonance units (RU) of the anti-Penta His antibody (Qiagen) is performed on a CM5 chip at pH 5.0 using the standard amine coupling kit (Biacore, Freiburg/Germany). HuFcγRIIIa-V158-K6H6 and muFcγRIV-aviHis-biotin are captured for 60 s at 4 and 10 nM respectively.
(§2) Constructs with different Fc-mutations are passed through the flow cells for 120 s at a concentration of 1000 nM with a flow rate of 30 μl/min. The dissociation is monitored for 220 s. Bulk refractive index differences are corrected for by subtracting the response obtained in a reference flow cell. Here, the Fc-variants are flown over a surface with immobilized anti-Penta His antibody but on which HBS-EP has been injected rather than HuFcγRIIIa-V158-K6H6 or muFcγRIV-aviHis-biotin. Affinity for human FcγRIIIa-V158 and murine FcγRIV was determined for wild-type Fc using a concentration range from 500-4000 nM.
(§3) The steady state response was used to derive the dissociation constant KD by non-linear curve fitting of the Langmuir binding isotherm. Kinetic constants were derived using the Biacore T100 Evaluation Software (vAA, Biacore AB, Uppsala/Sweden), to fit rate equations for 1:1 Langmuir binding by numerical integration.

[2] = target: T2, muFcγRIV-aviHis-biotin (murine, UniProt A0A0B4J1G0 21-203, Biotin on the lysine of the Avi tag (tag left out of the letters); C-terminal His tag used for capture by the anti-Penta His antibody); test: as above
T2 construct: Captured on an anti-Penta His antibody on a CM5 chip; also called murine FcγRIV; not shown: Avi-His tag (and any linker to it)
T2 sequence: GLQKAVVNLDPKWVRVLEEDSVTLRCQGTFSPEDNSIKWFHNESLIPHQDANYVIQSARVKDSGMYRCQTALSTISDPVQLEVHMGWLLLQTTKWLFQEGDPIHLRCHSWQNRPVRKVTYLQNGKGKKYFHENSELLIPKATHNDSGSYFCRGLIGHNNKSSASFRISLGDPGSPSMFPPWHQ
Protocol: as §1, §2, §3

[3] = target: T1, HuFcγRIIIa-V158-K6H6; test: SPR Biacore T100, 25 °C, kinetic fit, one concentration (1000 nM); receptor captured via anti-Penta His
Protocol: as §1, §2, §3

[4] = target: T2, muFcγRIV-aviHis-biotin; test: SPR Biacore T100, 25 °C, kinetic fit; receptor captured via anti-Penta His
Protocol: as §1, §2, §3

[5] = target: T1, HuFcγRIIIa-V158-K6H6; test: SPR Biacore T100, 25 °C, kinetic fit (value in brackets, not explained); receptor captured via anti-Penta His
Protocol: as §1, §2, §3

[6] = target: T3, human CEA expressed on tumor cells (LS-174T, MKN-45, MC38-huCEA) (human, UniProt P06731 35-685); test: flow cytometry on LS-174T cells; CL/CH1 exchange; CEA on LS-174T cells
T3 construct: whole, on cells; also called Carcinoembryonic antigen
T3 sequence (looked up): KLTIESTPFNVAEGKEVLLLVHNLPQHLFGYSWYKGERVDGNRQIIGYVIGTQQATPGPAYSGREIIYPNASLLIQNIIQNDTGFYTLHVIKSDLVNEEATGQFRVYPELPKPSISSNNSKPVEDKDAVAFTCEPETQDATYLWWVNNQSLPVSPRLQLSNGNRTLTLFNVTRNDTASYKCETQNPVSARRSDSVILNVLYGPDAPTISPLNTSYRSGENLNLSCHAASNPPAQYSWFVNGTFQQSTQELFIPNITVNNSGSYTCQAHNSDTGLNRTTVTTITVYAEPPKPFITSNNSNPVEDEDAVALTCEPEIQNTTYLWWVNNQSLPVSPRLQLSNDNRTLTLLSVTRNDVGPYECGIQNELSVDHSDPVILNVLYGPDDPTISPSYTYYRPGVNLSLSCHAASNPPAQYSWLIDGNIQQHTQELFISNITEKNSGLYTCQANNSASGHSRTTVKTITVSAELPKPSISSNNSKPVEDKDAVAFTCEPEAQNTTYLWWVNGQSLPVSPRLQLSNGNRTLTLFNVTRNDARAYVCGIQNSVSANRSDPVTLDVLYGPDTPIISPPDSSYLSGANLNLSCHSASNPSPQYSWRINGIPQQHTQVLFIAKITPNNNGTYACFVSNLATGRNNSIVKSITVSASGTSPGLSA
Protocol: (§4) Binding of the different bispecific constructs to CD3 on Jurkat cells (ATCC #TIB-152), and the respective tumor antigen on target cells, was determined by FACS. Briefly, cells were harvested, counted and checked for viability. 0.15-0.2 million cells per well (in PBS containing 0.1% BSA; 90 μl) were plated in a round-bottom 96-well plate and incubated with the indicated concentration of the bispecific constructs and corresponding IgG controls (10 μl) for 30 min at 4° C. For a better comparison, all constructs and IgG controls were normalized to same molarity. […] Bound constructs were detected using a FACSCantoII (Software FACS Diva). The “(scFv)₂” molecule was detected using a FITC-conjugated anti-His antibody (Lucerna, #RHIS-45F-Z). […] Unless otherwise indicated, cells were fixed with 100 μl/well fixation buffer (BD #554655) for 15 min at 4° C. in the dark, centrifuged for 6 min at 400×g and kept in 200 μl/well PBS containing 0.1% BSA until the samples were measured with FACS CantoII. EC50 values were calculated using the GraphPad Prism software.
(§5) As a control, the equivalent maximum concentration of the corresponding IgGs and the background staining due to the labeled 2ndary antibody (goat anti-human FITC-conjugated AffiniPure F(ab′)₂ Fragment, Fcγ Fragment-specific, Jackson Immuno Research Lab #109-096-098) were assessed as well.

[7] = target: T3, human CEA expressed on tumor cells …; test: cell-based or functional assay
[8] = target: T4, human CD3 expressed on Jurkat cells (human, UniProt P07766 23-207); test: flow cytometry on Jurkat cells; CL/CH1 exchange; CD3 on Jurkat cells
T4 construct: CD3 as part of the T cell receptor complex on Jurkat cells; also called huCD3; human CD3 on cells
Protocol: as §4, §5

[9] = target: T3, human CEA expressed on tumor cells …; test: flow cytometry on LS-174T cells; VL/VH exchange; CEA on LS-174T cells
Protocol: as §4, §5

[10] = target: T4, human CD3 expressed on Jurkat cells; test: flow cytometry on Jurkat cells; VL/VH exchange; CD3 on Jurkat cells
Protocol: as §4, §5

T1 sequence (P08637 17-208 F176V): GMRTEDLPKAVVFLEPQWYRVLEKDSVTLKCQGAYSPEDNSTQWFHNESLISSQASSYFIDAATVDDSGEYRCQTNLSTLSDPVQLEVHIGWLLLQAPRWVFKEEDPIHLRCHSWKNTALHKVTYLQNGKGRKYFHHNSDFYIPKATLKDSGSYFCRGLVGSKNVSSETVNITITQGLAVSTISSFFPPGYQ
T4 sequence (P07766 23-207 limits assumed): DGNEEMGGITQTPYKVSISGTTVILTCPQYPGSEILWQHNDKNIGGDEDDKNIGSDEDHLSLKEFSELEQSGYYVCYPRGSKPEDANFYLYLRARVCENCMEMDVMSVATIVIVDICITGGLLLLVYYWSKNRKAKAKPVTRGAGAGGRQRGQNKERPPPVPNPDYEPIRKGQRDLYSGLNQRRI

B1: “2+1 IgG scFab, wt” (anti-MCSP/anti-huCD3) (bispecific antibody)
chain 1: DIVLTQSPSSLSASLGDRVTISCSASQGIRNYLNWYQQRPDGTVKLLIYYTSSLHSGVPSRFSGSGSGTDYSLTISNLEPEDIATYYCQQYSKLPWTFGGGTKLEIKRTVAAPSVFIFPPSDEQLKSGTASVVCLLNNFYPREAKVQWKVDNALQSGNSQESVTEQDSKDSTYSLSSTLTLSKADYEKHKVYACEVTHQGLSSPVTKSFNRGEC
chain 2: not shown
chain 3: not shown
notes: Wild-type Fc domain; vectors transfected 1:2:1 (heavy chain : light chain : heavy chain-scFab); also called Fc-wt; copies: 2 + 1 + 1
- Kd [1]: 3470 nM
- Kd [2]: 1500 nM
- Kd [3]: 600 nM
- Kd [4]: 576 nM
- Kd [5]: 1200 nM

B2: “2+1 IgG Crossfab, inverted”; CL/CH1 exchange (CH1A1A/V9) (anti-CEA/anti-huCD3) (bispecific antibody)
chain 1: QVQLVQSGAEVKKPGASVKVSCKASGYTFTEFGMNWVRQAPGQGLEWMGWINTKTGEATYVEEFKGRVTFTTDTSTSTAYMELRSLRSDDTAVYYCARWDFAYYVEAMDYWGQGTTVTVSSASTKGPSVFPLAPSSKSTSGGTAALGCLVKDYFPEPVTVSWNSGALTSGVHTFPAVLQSSGLYSLSSVVTVPSSSLGTQTYICNVNHKPSNTKVDKKVEPKSCDKTHTCPPCPAPEAAGGPSVFLFPPKPKDTLMISRTPEVTCVVVDVSHEDPEVKFNWYVDGVEVHNAKTKPREEQYNSTYRVVSVLTVLHQDWLNGKEYKCKVSNKALGAPIEKTISKAKGQPREPQVCTLPPSRDELTKNQVSLSCAVKGFYPSDIAVEWESNGQPENNYKTTPPVLDSDGSFFLVSKLTVDKSRWQQGNVFSCSVMHEALHNHYTQKSLSLSPGK
chain 2: DIQMTQSPSSLSASVGDRVTITCKASAAVGTYVAWYQQKPGKAPKLLIYSASYRKRGVPSRFSGSGSGTDFTLTISSLQPEDFATYYCHQYYTYPLFTFGQGTKLEIKRTVAAPSVFIFPPSDEQLKSGTASVVCLLNNFYPREAKVQWKVDNALQSGNSQESVTEQDSKDSTYSLSSTLTLSKADYEKHKVYACEVTHQGLSSPVTKSFNRGEC
chain 3: DIQMTQSPSSLSASVGDRVTITCRASQDIRNYLNWYQQKPGKAPKLLIYYTSRLESGVPSRFSGSGSGTDYTLTISSLQPEDFATYYCQQGNTLPWTFGQGTKVEIKSSASTKGPSVFPLAPSSKSTSGGTAALGCLVKDYFPEPVTVSWNSGALTSGVHTFPAVLQSSGLYSLSSVVTVPSSSLGTQTYICNVNHKPSNTKVDKKVEPKSC
chain 4: not shown
notes: also called CL/CH1-exchange construct
- EC50 [6]: 6.7 nM
- EC50 of killing (LDH release) of LS-174T cells, human PBMCs, E:T 10:1, 28 h [7]: 0.673 nM
- EC50 of killing (LDH release) of MKN-45 cells, human PBMCs, E:T 10:1, 28 h [7]: 0.115 nM
- EC50 [8]: 3.9 nM

B3: “2+1 IgG Crossfab, inverted”; VL/VH exchange (CH1A1A/V9) (anti-CEA/anti-huCD3) (bispecific antibody)
chain 1: EVQLVESGGGLVQPGGSLRLSCAASGYSFTGYTMNWVRQAPGKGLEWVALINPYKGVSTYNQKFKDRFTISVDKSKNTAYLQMNSLRAEDTAVYYCARSGYYGDSDWYFDVWGQGTLVTVSSASVAAPSVFIFPPSDEQLKSGTASVVCLLNNFYPREAKVQWKVDNALQSGNSQESVTEQDSKDSTYSLSSTLTLSKADYEKHKVYACEVTHQGLSSPVTKSFNRGEC
chain 2: not shown
chain 3: B2 chain 1
chain 4: B2 chain 2
notes: also called VL/VH-exchange construct
- EC50 [9]: 9.3 nM
- EC50 [10]: 4.6 nM
- EC50 of killing (LDH release) of LS-174T cells, human PBMCs, E:T 10:1, 28 h [7]: 0.955 nM
- EC50 of killing (LDH release) of MKN-45 cells, human PBMCs, E:T 10:1, 28 h [7]: 0.243 nM

From US20250043028A1 (Hoffmann-La Roche, published 2025)
